One assay concerns Rat aortic SMCs. Description: qRT-PCR of fibronectin and collagen I in SMC. The assay is classed as cell-based. As to conditions: 500 nM, 24 h; PBS control set equal to 1; average of duplicates ± range. Here is the method: mRNA was isolated from RASMs 24 hours after incubation with 500 nM pUR4 or III-11C control peptides using RNAzol as per the manufacturer's instructions (Invitrogen). cDNA was prepared using a Superscript First Strand cDNA kit as per the manufacturer's instructions (Invitrogen). Mouse carotid arteries were harvested and frozen in liquid nitrogen. RNA was isolated using Trizol and purified using a QIAgen RNeasy Micro Kit. RNA integrity was examined with an Agilent 2100 Bioanalyser using RNA6000 NanoAssay (Agilent Technology). Whole transcriptome amplification was performed using Qiagen's QuantiTect Whole Transcriptome Amplification Kit. Quantitative RT-PCR analyses were performed using ABI Prism 7900HT sequence detection system (Applied Biosystems). The qRT-PCR primers for 3 mouse genes were obtained from ABI: GADPH (4352932E), fibronectin (Mm01256744_m1), and collagen Ia1 (Mm00801666_g1). TaqMan probe chemistry was used according to the manufacturer's instructions. qRT-PCR reactions were run in triplicate for each sample. The data was normalized to the levels of GAPDH in each sample, and the results were averaged.

Assay [1] has as its system left carotid artery of FVB mice. As to the kind of experiment: Carotid ligation flow-induced vascular remodeling, morphometry. The assay is classed as in vivo, mouse. The method, then: Both sexes of FVB transgenic mice were used for the carotid ligation experiments, since no significant differences in their modeling response were reported between male and female mice. All procedures were approved by the University of Rochester Animal Care Committee, and were performed in accordance with the guidelines of the National Institutes of Health for the care and use of laboratory animals.
Digital images of Verhoeff-van Gieson elastic stained cross-sections were captured and morphometric analysis was performed using Image-Pro Plus software (Media Cybernetics, Md.). The circumferences of the lumen, internal elastic lamina (IEL) and external elastic lamina (EEL) in the sections were identified using the automatic trace mode in Image-Pro. The accuracy of the automated tracing was verified by visual inspection of the images. Cross-sectional areas of the lumen, neointima, media, adventitia, and the area encompassed by the EEL were measured. Vessel compartment volumes were calculated as described (Intengan et al., “Vascular Remodeling in Hypertension: Roles of Apoptosis, Inflammation, and Fibrosis,” Hypertension 38:581-587 (2001), which is hereby incorporated by reference in its entirety). Briefly, starting with the carotid bifurcation as the origin, a series of cross-sections of 5 μm were cut every 200 μm through the first mm length of the carotid artery. Morphometric analysis was performed at each point, and the average of each division was calculated, summed, and reported as the volume.
Blood flow in the left carotid artery of 10-week-old FVB/NJ (FVB) mice was reduced by ligating the external and internal carotid arterial branches as described (Korshunov et al., “Flow-Induced Vascular Remodeling in the Mouse: A Model for Carotid Intima-Media Thickening,” Arterioscler. Thromb. Vasc. Biol. 23:2185-2191 (2003), which is hereby incorporated by reference in its entirety). Mice were anesthetized with an intraperitoneal injection of ketamine (80 mg/kg) and xylazine (5 mg/kg) as described in the above-cited referenced. The left common carotid artery was dissected free of the surrounding connective tissue and 50 μL of F-127 pluronic gel (BASF) containing 20 μmol/L pUR4 or III-11C was applied around the carotid artery. Animals were separated into 5 groups containing 5 to 10 animals each: (1) sham-operated, in which the branches of the left carotid artery were exposed and dissected out, but not ligated; (2) ligation; (3) ligation with pluronic gel; (4) ligation with pluronic gel containing III-11C; (5) ligation with pluronic gel containing pUR4.
Blood flow in the left and right common carotid artery was measured using an ultrasonic transit-time volume flowmeter (Transonic Systems) before sacrifice. Animals were perfusion-fixed with 10% formalin 7 or 14 days after surgery. The common carotid arteries were harvested and embedded in paraffin. Cross-sections of 5 μm were cut from the bifurcation every 200 μm through the first mm length of the carotid artery as described (Korshunov et al., “Flow-Induced Vascular Remodeling in the Mouse: a Model for Carotid Intima-Media Thickening,” Arterioscler. Thromb. Vasc. Biol. 23:2185-2191 (2003), which is hereby incorporated by reference in its entirety). Sections were stained with Verhoeff-van Gieson elastic stain, and then subjected to morphometric analysis. […]

For the next assay, the system named is type I collagen. Description: ELISA binding of pUR4 to ECM proteins: collagen I. As to conditions: plates coated 10 μg/mL, FIG. 7. Here is the method:
FIG. 7 is a graph depicting the binding of pUR4 to ECM Proteins. 96-well plates were coated with 10 μg/mL type I collagen (COL), denatured type I collagen (dCOL), fibronectin (FN), laminin (LN), vitronectin (VN), or fibrinogen (FG) at 4° C. overnight. pUR4 was added to the wells and serially diluted. Bound pUR4 was detected as described herein. Measurements were done at 405 nm on a Wallac 1420 multilabel counter. Data represents the average of duplicate determinations, and the error bars the range.
96-well tissue culture plates were coated with 10 μg/mL type I collagen, fibronectin, laminin, fibrinogen, or vitronectin overnight at 4° C. Denatured collagens were generated as described (George et al., “Fibronectins are Essential for Heart and Blood Vessel Morphogenesis but are Dispensable for Initial Specification of Precursor Cells,” Blood 90:3073-3081 (1997), which is hereby incorporated by reference in its entirety). Plates were blocked with 1% bovine serum albumin (BSA) in Tris buffered saline (TBS) for 1 hour, then washed with TBS. pUR4 was serially diluted into coated wells, then incubated at room temperature for 90 min. Wells were washed with TBS containing 0.1% Tween 20. […] After washing, peroxidase activity was quantified by using 2,2′-azino-bis-(3-ethylbenthiazoline-[…]). […]

The mark [2] stands for this setting: vessel compartments analyzed separately.

These results are taken from US9364516B2, “Treatment of fibrosis-related disorders using fibronectin binding proteins and polypeptides” (priority 2010, dated 2016).

B1: pUR4: 49-mer peptide derived from the bacterial F1 adhesin, His tagged, SEQ ID NO:1; class I fibronectin polymerization inhibitor (peptide)
chain: MRGSHHHHHHGSKDQSPLAGESGETEYITEVYGNQQNPVDIDKKLPNETGFSGNMVETEDTKLN
modifications: His tag; Bacterial adhesin derived peptide pUR4
On to B1, for which, in the assay with Rat aortic SMCs, the “Col Ia1 mRNA, relative level” value is 1.42 ± 0.06 and the “Fibronectin mRNA, relative level” value is 1.43 ± 0.02. The “increase in lumen volume after ligation” value in assay [1] (20 μmol/L in pluronic gel, periadventitial) is listed as “prevented”. Also, in assay [1] (20 μmol/L in pluronic gel, periadventitial, 14 days after ligation), the “carotid (vascular) remodeling” value is reported as “dramatically reduced”. For the same molecule, the “effect on IMT at 7 days” value in assay [1] (7 days after ligation) is “no statistical effect”. In addition, in assay [1] (14 days after ligation), the “inhibition of adventitial thickening compared to III-11C” value is listed as 38% and the “reduction of extent of IMT (intima-media thickening) vs control peptide” value came to 40%. For the same molecule, in assay [1] (mouse, in vivo), the “remodeling index, pUR4 vs III-11C” value was “not different”. Besides, the “outward remodeling (EEL volume)” value in assay [1] (no difference in EEL volume vs shams 7 days post ligation) is on record as “prevented”. For the same molecule, in assay [1] (setting [2]), the “reduction of intima thickening” value is given as 63% and the “reduction of media thickening” value was determined as 27%. The “binding to collagen I” value with type I collagen is “does not bind”.
